Test results: patent US11345725B2, “Bis-thioether stapled peptides as inhibitors of PRC2 function” (Research Foundation of the City University of New York, priority 2019, dated 2022)
Starred links: 1 amine or outer side, 2 acyl side, 3 side chain; linkers in the order of their positions; H or OH if unused. Positions of bridges follow the written chain, without caps; N, C: chain ends. Residues, ends and D or L forms follow the SMILES beside them. Octanediyl(1,8) = C(CCCC[*:2])CCC[*:1]; X5 = C(CCC[*:1])CCC[*:2]; X6 = C(=C\C[*:2])/C[*:1]; X4 = C(CCC[*:2])CC[*:1]; X2 = C(CC[*:1])CC[*:2]; X3 = C(CC[*:2])C[*:1]; X1 = C(C[*:1])C[*:2]

test system: endogenous PRC2 extracted from a human clear cell renal carcinoma cell line (Caki-1); assay: IC50 (uM); details: not given
Excerpt: Table printed on a drawing sheet, FIG. 2A
Head of the field: IC50 (uM)
The patent's description of the figure: FIG. 2A depicts the results of biochemical assays showing structure of the synthesized stapled peptides, and their correspondent helicity and IC50 values for inhibition of H3K27 trimethylation in vitro, as determined by a histone methyltransferase colorimetric assay optimized using endogenous PRC2 extracted from a human clear cell renal carcinoma cell line (Caki-1);
FIG. 2B depicts a CD spectra of stapled peptides and their linear counterparts measured in water at 20° C.;
FIG. 2C illustrates a plot of H3K27 trimethylation inhibition using the enzymatic in vitro assay described in FIG. 2A, with varying concentrations of 2 (GN-ZB2), positive control GSK126, and using an equimolar combination of both compounds to test their synergistic effects. A summary of the IC50 values for inhibition of H3K27me3 determined from the experiments is also presented. Calculation of the combination index using the equation described by Chou et al. indicated a marked synergistic effect (CI=0.53) of 2 (GN-ZB2) and GSK126;
FIG. 2D show both Chymotrypsin-based proteolytic degradation as well as the plasma assay show remarkable stability of the disclosed i, i+4 and i, i+7 12 bisthioether stapled peptides. The rate of peptide proteolysis was monitored by HPLC and HPLC-MS analysis.
First copying reader's note: IC50 cells hold the value and its ± error together.
Where the first naming reader finds the target: description_of_the_figure: histone methyltransferase colorimetric assay optimized using endogenous PRC2 extracted from a human clear cell renal carcinoma cell line (Caki-1)

In order of rising IC50:
1. Ac-TVDKIASA[CSVLAEEC]PQN-CONH2 CH2(CH2)4CH2 (TVDKIASACSVLAEECPQN; N-acetyl, C-amide, hexylene bisthioether staple; Synthetic bisthioether stapled peptide; compound 4; THIOETH (9)..(16) (CH2)6 linker between residues 9 and 16) [4 | SEQ ID NO: 6]  10.1 ± 1.1 µM
2. Ac-TVDKIASA[CSVLAEEC]PQN-CONH2 CH2(CH2)6CH2 (TVDKIASACSVLAEECPQN; N-acetyl, C-amide, octylene bisthioether staple; Synthetic bisthioether stapled peptide; Compound 6; THIOETH (9)..(16) (CH2)8 linker between residues 9 and 16) [6 | SEQ ID NO: 8]  17 ± 1.4 µM
3. Ac-TVDKIASA[CSVLAEEC]PQN-CONH2 CH2(CH2)5CH2 (TVDKIASACSVLAEECPQN; N-acetyl, C-amide, heptylene bisthioether staple; Synthetic bisthioether stapled peptide; Compound 5; THIOETH (9)..(16) (CH2)7 linker between residues 9 and 16) [5 | SEQ ID NO: 7]  27.1 ± 1.2 µM

test system: not listed separately; assay: circular dichroism; details: deionized water; pH unbuffered; 20 °C; 25 uM

In order of rising helicity:
1. CC[C@H](C)[C@@H]1NC(=O)[C@@H](NC(=O)[C@H](Cc2ccc(O)cc2)NC(=O)[C@H](CCC(=O)O)NC(=O)[C@H](CCC(=O)O)NC(=O)[C@H](CC(N)=O)NC(=O)[C@@H](NC(=O)[C@@H](NC(C)=O)C(C)C)[C@@H](C)CC)CSCCCCCSC[C@@H](C(=O)N[C@@H](CC(N)=O)C(=O)N[C@H](C(=O)N2CCC[C@H]2C(=O)N[C@@H](Cc2ccccc2)C(=O)N[C@@H](CC(C)C)C(N)=O)[C@@H](C)O)NC(=O)[C@H](CCCCN)NC(=O)[C@H](Cc2c[nH]c3ccccc23)NC1=O (Ac-VINEEYCIWKCNTPFL-NH2; linker 7-11 via X2)  5.68%
2. CC[C@H](C)[C@H](NC(=O)[C@H](CCCCN)NC(=O)[C@H](CC(=O)O)NC(=O)[C@@H](NC(=O)[C@@H](NC(C)=O)[C@@H](C)O)C(C)C)C(=O)N[C@@H](C)C(=O)N[C@@H](CO)C(=O)N[C@@H](C)C(=O)N[C@H]1CSCCCCCCSC[C@@H](C(=O)N2CCC[C@H]2C(=O)N[C@@H](CCC(N)=O)C(=O)N[C@@H](CC(N)=O)C(N)=O)NC(=O)[C@H](CCC(=O)O)NC(=O)[C@H](CCC(=O)O)NC(=O)[C@H](C)NC(=O)[C@H](CC(C)C)NC(=O)[C@H](C(C)C)NC(=O)[C@H](CO)NC1=O (Ac-TVDKIASACSVLAEECPQN-NH2; linker 9-16 via X4)  8.7%
3. CC[C@H](C)[C@H](NC(=O)[C@@H]1CSCCCCCSC[C@H](NC(=O)[C@@H](NC(=O)[C@@H](NC(C)=O)C(C)C)[C@@H](C)CC)C(=O)N[C@@H](CCC(=O)O)C(=O)N[C@@H](CCC(=O)O)C(=O)N[C@@H](Cc2ccc(O)cc2)C(=O)N1)C(=O)N[C@@H](Cc1c[nH]c2ccccc12)C(=O)N[C@@H](CCCCN)C(=O)N[C@@H](CCCCN)C(=O)N[C@@H](CC(N)=O)C(=O)N[C@H](C(=O)N1CCC[C@H]1C(=O)N[C@@H](Cc1ccccc1)C(=O)N[C@@H](CC(C)C)C(N)=O)[C@@H](C)O (Ac-VICEEYCIWKKNTPFL-NH2; linker 3-7 via X2)  11%
4. CC[C@H](C)[C@H](NC(=O)[C@H](CCCCN)NC(=O)[C@H](CC(=O)O)NC(=O)[C@@H](NC(=O)[C@@H](NC(C)=O)[C@@H](C)O)C(C)C)C(=O)N[C@@H](C)C(=O)N[C@@H](CO)C(=O)N[C@@H](C)C(=O)N[C@H]1CSCCCCCCCCSC[C@@H](C(=O)N2CCC[C@H]2C(=O)N[C@@H](CCC(N)=O)C(=O)N[C@@H](CC(N)=O)C(N)=O)NC(=O)[C@H](CCC(=O)O)NC(=O)[C@H](CCC(=O)O)NC(=O)[C@H](C)NC(=O)[C@H](CC(C)C)NC(=O)[C@H](C(C)C)NC(=O)[C@H](CO)NC1=O (Ac-TVDKIASACSVLAEECPQN-NH2; linker 9-16 via Octanediyl(1,8))  12.1%
5. CC[C@H](C)[C@H](NC(=O)[C@H](CCCCN)NC(=O)[C@H](CC(=O)O)NC(=O)[C@@H](NC(=O)[C@@H](NC(C)=O)[C@@H](C)O)C(C)C)C(=O)N[C@@H](C)C(=O)N[C@@H](CO)C(=O)N[C@@H](C)C(=O)N[C@H]1CSCCCCCCCSC[C@@H](C(=O)N2CCC[C@H]2C(=O)N[C@@H](CCC(N)=O)C(=O)N[C@@H](CC(N)=O)C(N)=O)NC(=O)[C@H](CCC(=O)O)NC(=O)[C@H](CCC(=O)O)NC(=O)[C@H](C)NC(=O)[C@H](CC(C)C)NC(=O)[C@H](C(C)C)NC(=O)[C@H](CO)NC1=O (Ac-TVDKIASACSVLAEECPQN-NH2; linker 9-16 via X5)  13.7%
6. CC[C@H](C)[C@@H]1NC(=O)[C@@H](NC(=O)[C@H](Cc2ccc(O)cc2)NC(=O)[C@H](CCC(=O)O)NC(=O)[C@H](CCC(=O)O)NC(=O)[C@H](CC(N)=O)NC(=O)[C@@H](NC(=O)[C@@H](NC(C)=O)C(C)C)[C@@H](C)CC)CSCCCCSC[C@@H](C(=O)N[C@@H](CC(N)=O)C(=O)N[C@H](C(=O)N2CCC[C@H]2C(=O)N[C@@H](Cc2ccccc2)C(=O)N[C@@H](CC(C)C)C(N)=O)[C@@H](C)O)NC(=O)[C@H](CCCCN)NC(=O)[C@H](Cc2c[nH]c3ccccc23)NC1=O (Ac-VINEEYCIWKCNTPFL-NH2; linker 7-11 via X3)  16.5%
7. CC[C@H](C)[C@@H]1NC(=O)[C@@H](NC(=O)[C@H](Cc2ccc(O)cc2)NC(=O)[C@H](CCC(=O)O)NC(=O)[C@H](CCC(=O)O)NC(=O)[C@H](CC(N)=O)NC(=O)[C@@H](NC(=O)[C@@H](NC(C)=O)C(C)C)[C@@H](C)CC)CSCCCSC[C@@H](C(=O)N[C@@H](CC(N)=O)C(=O)N[C@H](C(=O)N2CCC[C@H]2C(=O)N[C@@H](Cc2ccccc2)C(=O)N[C@@H](CC(C)C)C(N)=O)[C@@H](C)O)NC(=O)[C@H](CCCCN)NC(=O)[C@H](Cc2c[nH]c3ccccc23)NC1=O (Ac-VINEEYCIWKCNTPFL-NH2; linker 7-11 via X1)  18.4%
8. CC[C@H](C)[C@H](NC(=O)[C@@H]1CSC/C=C/CSC[C@H](NC(=O)[C@@H](NC(=O)[C@@H](NC(C)=O)C(C)C)[C@@H](C)CC)C(=O)N[C@@H](CCC(=O)O)C(=O)N[C@@H](CCC(=O)O)C(=O)N[C@@H](Cc2ccc(O)cc2)C(=O)N1)C(=O)N[C@@H](Cc1c[nH]c2ccccc12)C(=O)N[C@@H](CCCCN)C(=O)N[C@@H](CCCCN)C(=O)N[C@@H](CC(N)=O)C(=O)N[C@H](C(=O)N1CCC[C@H]1C(=O)N[C@@H](Cc1ccccc1)C(=O)N[C@@H](CC(C)C)C(N)=O)[C@@H](C)O (Ac-VICEEYCIWKKNTPFL-NH2; linker 3-7 via X6)  19%
9. CC[C@H](C)[C@H](NC(=O)[C@@H]1CSCCCCCCSC[C@H](NC(=O)[C@@H](NC(=O)[C@@H](NC(C)=O)C(C)C)[C@@H](C)CC)C(=O)N[C@@H](CCC(=O)O)C(=O)N[C@@H](CCC(=O)O)C(=O)N[C@@H](Cc2ccc(O)cc2)C(=O)N1)C(=O)N[C@@H](Cc1c[nH]c2ccccc12)C(=O)N[C@@H](CCCCN)C(=O)N[C@@H](CCCCN)C(=O)N[C@@H](CC(N)=O)C(=O)N[C@H](C(=O)N1CCC[C@H]1C(=O)N[C@@H](Cc1ccccc1)C(=O)N[C@@H](CC(C)C)C(N)=O)[C@@H](C)O (Ac-VICEEYCIWKKNTPFL-NH2; linker 3-7 via X4)  19.4%
10. CC[C@H](C)[C@@H]1NC(=O)[C@@H](NC(=O)[C@H](CC(=O)O)NC(=O)[C@@H](NC(=O)[C@@H](NC(C)=O)[C@@H](C)O)C(C)C)CSCCCSC[C@@H](C(=O)N[C@@H](CC(C)C)C(=O)N[C@@H](CO)C(=O)N[C@H](C(=O)N[C@@H](CC(C)C)C(=O)N[C@@H](C)C(=O)N[C@@H](CCC(=O)O)C(=O)N[C@@H](CCC(=O)O)C(=O)N[C@H](C(=O)N2CCC[C@H]2C(=O)N[C@@H](CCC(N)=O)C(=O)N[C@@H](CC(N)=O)C(N)=O)C(C)C)C(C)C)NC(=O)[C@H](CO)NC(=O)[C@H](C)NC1=O (Ac-TVDCIASCLSVLAEEVPQN-NH2; linker 4-8 via X1)  23%
11. CC[C@H](C)[C@@H]1NC(=O)[C@@H](NC(=O)[C@H](Cc2ccc(O)cc2)NC(=O)[C@H](CCC(=O)O)NC(=O)[C@H](CCC(=O)O)NC(=O)[C@H](CC(N)=O)NC(=O)[C@@H](NC(=O)[C@@H](NC(C)=O)C(C)C)[C@@H](C)CC)CSC/C=C/CSC[C@@H](C(=O)N[C@@H](CC(N)=O)C(=O)N[C@H](C(=O)N2CCC[C@H]2C(=O)N[C@@H](Cc2ccccc2)C(=O)N[C@@H](CC(C)C)C(N)=O)[C@@H](C)O)NC(=O)[C@H](CCCCN)NC(=O)[C@H](Cc2c[nH]c3ccccc23)NC1=O (Ac-VINEEYCIWKCNTPFL-NH2; linker 7-11 via X6)  24.2%
12. CC[C@H](C)[C@H](NC(=O)[C@H](CCC(N)=O)NC(=O)[C@@H](NC(=O)[C@@H]1CSCCCSC[C@H](NC(=O)[C@H](CC(C)C)NC(=O)[C@H](Cc2c[nH]c3ccccc23)NC(=O)[C@H](CCC(=O)O)NC(C)=O)C(=O)N[C@@H](CCC(=O)O)C(=O)N[C@@H](CCCCN)C(=O)N[C@@H]([C@@H](C)O)C(=O)N1)[C@@H](C)O)C(=O)N[C@@H](CCC(=O)O)C(=O)N[C@@H](CCC(=O)O)C(=O)N[C@@H](Cc1ccccc1)C(N)=O (Ac-EWLCEKTCTQIEEF-NH2; linker 4-8 via X1)  38.4%

test system: Caki-1 cells; assay: not given; assay type: cell-based, human; details: Caki-1 cells, 72h daily treatment, colorimetric method; read-out: IC50 cell proliferation
Description: All of the cells were grown adherently.
Antiproliferative assays. […] For the following 72h, every 24 h the cell culture media was changed and fresh media containing the compounds was added, 1% DMSO was used as control. After 72h of treatment, both floating and attached cells were collected and analyzed.

Work on `CC[C@H](C)n1cc(C)c2c(C(=O)NCc3c(C)cc(C)[nH]c3=O)cc(-c3ccc(N4CCNCC4)nc3)cc21` [GSK126] yielded an IC50 of 0.15 ± 0.06 µM.

same assay, conditions: Caki-1 cells, 72h of daily treatment

With `CC[C@H](C)n1cc(C)c2c(C(=O)NCc3c(C)cc(C)[nH]c3=O)cc(-c3ccc(N4CCNCC4)nc3)cc21` [GSK126] the “effect on cell proliferation” value was “significantly inhibits cell proliferation”.
